Experiment [1] has as its target D3H44 light chain F116A_L135V (Kabat), N-terminal HA or FLAG tag. As to the kind of experiment: LCCA co-expression, competing light chain m33, L1:L2 DNA 1:3 normalized to 1:1, SPR tag read-out.
Experiment [2] has the same target. Nature of the experiment: LCCA co-expression, competing light chain m33, L1:L2 DNA 1:9 normalized to 1:1, SPR tag read-out.
The target of experiment [3] is D3H44 light chain S131T_L135F_S176F_T178F (Kabat), N-terminal HA or FLAG tag. As to the kind of experiment: LCCA co-expression, competing light chain m34, L1:L2 DNA 1:3 normalized to 1:1, SPR tag read-out.
For experiment [4] the target is unchanged. Nature of the experiment: LCCA co-expression, competing light chain m34, L1:L2 DNA 1:9 normalized to 1:1, SPR tag read-out.
The target of experiment [5] is D3H44 light chain L135W_S176L (Kabat), N-terminal HA or FLAG tag. As to the kind of experiment: LCCA co-expression, competing light chain m34, L1:L2 DNA 1:3 normalized to 1:1, SPR tag read-out.
Experiment [6] shares this target. As to the kind of experiment: LCCA co-expression, competing light chain m34, L1:L2 DNA 1:9 normalized to 1:1, SPR tag read-out.
The target in experiment [7] is D3H44 light chain F116A_L135V (Kabat), N-terminal HA or FLAG tag. Nature of the experiment: LCCA co-expression, competing light chain m35, L1:L2 DNA 1:3 normalized to 1:1, SPR tag read-out.
The target is the same in experiment [8]. As to the kind of experiment: LCCA co-expression, competing light chain m35, L1:L2 DNA 1:9 normalized to 1:1, SPR tag read-out.
In experiment [9] the target is D3H44 light chain Q124R_Q160K_T178R (Kabat), N-terminal HA or FLAG tag. Nature of the experiment: LCCA co-expression, competing light chain m37, L1:L2 DNA 1:3 normalized to 1:1, SPR tag read-out.
Experiment [10] has as its target D3H44 light chain Q124E_Q160E_T180E (Kabat), N-terminal HA or FLAG tag. Nature of the experiment: LCCA co-expression, competing light chain m38, L1:L2 DNA 1:3 normalized to 1:1, SPR tag read-out.
The target of experiment [11] is D3H44 light chain Q124E_T178E (Kabat), N-terminal HA or FLAG tag. Described as above.
Experiment [12] addresses D3H44 light chain Q124E_T180E (Kabat), N-terminal HA or FLAG tag. Described as above.
The target in experiment [13] is D3H44 light chain Q124R_Q160K_T178R (Kabat), N-terminal HA or FLAG tag. As to the kind of experiment: LCCA co-expression, competing light chain m39, L1:L2 DNA 1:3 normalized to 1:1, SPR tag read-out.
The target is the same in experiment [14]. Nature of the experiment: LCCA co-expression, competing light chain m40, L1:L2 DNA 1:3 normalized to 1:1, SPR tag read-out.
Experiment [15] concerns the target D3H44 light chain Q124E_Q160E_T180E (Kabat), N-terminal HA or FLAG tag. As to the kind of experiment: LCCA co-expression, competing light chain m38, L1:L2 DNA 1:9 normalized to 1:1, SPR tag read-out.
In experiment [16] the target is D3H44 light chain Q124R_Q160K_T178R (Kabat), N-terminal HA or FLAG tag. Nature of the experiment: LCCA co-expression, competing light chain m39, L1:L2 DNA 1:9 normalized to 1:1, SPR tag read-out.
Experiment [17] deals with D3H44 light chain Q124E_T180E (Kabat), N-terminal HA or FLAG tag. Nature of the experiment: LCCA co-expression, competing light chain m36, L1:L2 DNA 1:3 normalized to 1:1, SPR tag read-out.
The target is the same in experiment [18]. As to the kind of experiment: LCCA co-expression, competing light chain m36, L1:L2 DNA 1:9 normalized to 1:1, SPR tag read-out.
The target in experiment [19] is D3H44 light chain S131K (Kabat), N-terminal HA or FLAG tag. As to the kind of experiment: LCCA co-expression, competing light chain m37, L1:L2 DNA 1:3 normalized to 1:1, SPR tag read-out.
Experiment [20] has the same target. As to the kind of experiment: LCCA co-expression, competing light chain m37, L1:L2 DNA 1:9 normalized to 1:1, SPR tag read-out.
In experiment [21] the target is tissue factor (TF) antigen (UniProt P13726). As to the kind of experiment: SPR (ProteOn XPR36), Fab captured on anti-penta-His surface, TF as analyte, 1:1 fit; estimated value from a Fab differing only in the L chain tag (HA or FLAG).
For experiment [22] the target is unchanged. As to the kind of experiment: SPR (ProteOn XPR36), Fab captured on anti-penta-His surface, TF as analyte; reference wild-type D3H44 Fab; estimated value from a Fab differing only in the L chain tag.
For experiment [23] the target is unchanged. As to the kind of experiment: SPR (ProteOn XPR36), Fab captured on anti-penta-His surface, TF as analyte; reference wild-type D3H44 Fab; batch C.
For experiment [24] the target is unchanged. Nature of the experiment: SPR (ProteOn XPR36), Fab captured on anti-penta-His surface, TF as analyte, 1:1 fit; batch C (stored about 2 months at 4 C).
The target in experiment [25] is tissue factor (TF) antigen (human (from the antibody's name 'anti-human tissue factor'; not stated for the antigen lot in the assay)) (UniProt P13726). As to the kind of experiment: SPR (ProteOn XPR36): Fab captured via His tag on anti-penta His surface, TF injected, 1:1 fit; batch C (+).
The target is the same in experiment [26]. Nature of the experiment: SPR (ProteOn XPR36), Fab captured on anti-penta His, TF analyte; against wild-type D3H44 Fab; batch C by the KD cell's +.
Experiment [27] addresses tissue factor (TF) antigen (UniProt P13726). As to the kind of experiment: SPR as for KD; reference: wild-type D3H44 Fab.
Experiment [28] has the same target. Nature of the experiment: SPR, ProteOn XPR36; His-tagged Fab captured on anti-penta-His, TF injected; 1:1 fit.
The target is the same in experiment [29]. As to the kind of experiment: SPR as for KD; reference: wild-type D3H44 Fab; estimated (*) from the Fab that differs only in the L chain tag.
For experiment [30] the target is unchanged. Nature of the experiment: SPR, ProteOn XPR36; His-tagged Fab captured on anti-penta-His, TF injected; 1:1 fit; estimated (*) from the Fab that differs only in the L chain tag.
Experiment [31] shares this target. As to the kind of experiment: SPR (ProteOn XPR36), Fab captured on anti-penta-His surface, TF injected as analyte, 1:1 fit; marked * (estimated from a Fab that differs only in the L chain tag).
Experiment [32] has the same target. Nature of the experiment: SPR (ProteOn XPR36), Fab captured on anti-penta-His surface, TF injected as analyte, 1:1 fit; the row's other values are marked * (estimated); reference wild-type D3H44 Fab.
Experiment [33] shares this target. Nature of the experiment: SPR (ProteOn XPR36), Fab captured on anti-penta-His surface, TF injected as analyte, 1:1 fit; marked * (estimated from a Fab that differs only in the L chain tag); reference wild-type D3H44 Fab.
Experiment [34] addresses tissue factor (TF) (human) (UniProt P13726). As to the kind of experiment: SPR (ProteOn), Fab captured on anti-penta His, TF analyte, 1:1 fit; estimated from Fab differing only in L chain tag.

Consider “D3H44 Fab heavy chain A139G_F174V_V190A (Kabat), C-terminal ABD2-His6 tag”, for which the H1L1:H1L2 normalized median ratio in [1] is 49 of 100; in experiment [2] it was 40 of 100; in experiment [3], 51 of 100; in experiment [4], 60 of 100. Moreover, the H1L1:H1L2 normalized median scalar value ln(r1/f1) in experiment [3] was 0.03; in experiment [4], 0.42.
As for “D3H44 Fab heavy chain A139G_V190A (Kabat), C-terminal ABD2-His6 tag”, the H1L1:H1L2 normalized median ratio in experiment [5] is 32 of 100; in experiment [6], 72 of 100; in experiment [7], 68 of 100; in experiment [8] it was 28 of 100. Besides, the H1L1:H1L2 normalized median scalar value ln(r1/f1) is -0.77 in experiment [5] and 0.94 in experiment [6].
In the case of “D3H44 Fab heavy chain A139W_S188L (Kabat), C-terminal ABD2-His6 tag”, the H2L2:H2L1 normalized median ratio in experiment [1] was 59 of 100; in experiment [2], 55 of 100; in experiment [5] it was 34 of 100; in [3], 41 of 100; in experiment [6] it was 25 of 100; in experiment [4], 45 of 100. For the same substance, the H2L2:H2L1 normalized median ratio in experiment [7] is 66 of 100; in [8] it was 75 of 100.
“D3H44 Fab heavy chain L143E_K145T (Kabat), C-terminal ABD2-His6 tag”: the H1L1:H1L2 normalized median ratio in [9] is 59 of 100; in [10], 28 of 100; in [11], 41 of 100; in experiment [12], 41 of 100; in experiment [13], 72 of 100; in experiment [14], 59 of 100. For the same substance, the H1L1:H1L2 normalized median scalar value ln(r1/f1) in experiment [9] was 0.38; in experiment [13], 0.96; in [14], 0.36.
In the case of “D3H44 Fab heavy chain L143E_K145T_Q179D (Kabat), C-terminal ABD2-His6 tag”, the H1L1:H1L2 normalized median ratio in experiment [10] is 16 of 100; in experiment [15], 12 of 100; in [13], 84 of 100; in [16], 88 of 100. Besides, the H1L1:H1L2 normalized median scalar value ln(r1/f1) turned out to be 1.68 in [13] and 1.97 in [16].
Consider “D3H44 Fab heavy chain Q179K (Kabat), C-terminal ABD2-His6 tag”, for which the H2L2:H2L1 normalized median ratio in experiment [17] was 98 of 100; in [18], 88 of 100; in [9] it was 4 of 100; in [19] it was 2 of 100; in [20] it was 12 of 100; in experiment [10] it was 87 of 100. Further, the H2L2:H2L1 normalized median ratio in experiment [11] was 96 of 100; in experiment [12], 96 of 100; in [15] it was 88 of 100; in [13], 13 of 100; in [16], 12 of 100; in [14], 4 of 100.
For the substance “D3H44 Fab heterodimer H1 L143D_K145T_Q179E / L1 T178R”, in experiment [21], the Kd (as a rule, the equilibrium constant for the complex coming apart) was 0.28 nM. Also, the Change in median values of KD of h1l1 Fab heterodimer compared to wild type (-(log(KD design)-log(KD wt))) in experiment [22] is -0.25.
Consider “D3H44 Fab heterodimer H1 L143E_K145T_Q179D / L1 T178R”, for which the Change in median values of KD of h1l1 Fab heterodimer compared to wild type (-(log(KD design)-log(KD wt))) in experiment [23] and in [22] was 0.17 each time. Also, the dissociation constant (Kd) in [24] and in [21] was 0.11 nM throughout.
Substance “D3H44 Fab heterodimer, H1 Q39R_Q179K / L1 Q38E_Q124E_Q160E_T180E (H1L1 Fab of LCCA set 9827)” had a Kd in experiment [25] of 0.17 nM. Moreover, the Change in median values of KD of h1l1 Fab heterodimer compared to wild type (-(log(KD design)-log(KD wt))) in experiment [26] is -0.03.
With “D3H44 Fab heterodimer, H1L1 of LCCA Sets # 9705, 9706, 9704 and 9703 (H1 L143E_K145T_S188L; L1 Q124R)”, the change in median KD compared to wild type, -(log(KD design)-log(KD wt)) in [27] and in experiment [29] was -0.12 in each case. For the same substance, the Kd in [28] and in experiment [30] was 0.21 nM throughout.
As for “D3H44 H1L1 Fab heterodimer, H1 L124E_L143E_K145T, L1 Q124K_V133G_S176R_T178K”, the Kd in experiment [31] is 0.21 nM. Moreover, the Change in median KD of h1l1 Fab heterodimer compared to wild type (-(log(KD design)-log(KD wt))) (log(KD) difference) in [32] and in experiment [33] was -0.12 in each case.
As to “H1L1 Fab heterodimer of LCCA set 9585 (D3H44 Fab; H: L143E_K145T; L: Q124R)”, in experiment [34], the Kd is 0.28 nM and the change in KD vs wild type, -(log(KD design)-log(KD wt)) is -0.25.

Values taken from patent US11306156.
